Reference: patent US20060275758A1, “Use of pp2a phosphatase modulators in the treatment of mental disorders” (priority 2002, published 2006)

Columns and labels:
GSK-3β = assay: In vitro phosphorylation assay of GST-2E11 (KCNQ2-15b fusion protein) with recombinant GSK-3β kinase and PKA; type: biochemical; settings: LiCl added to the kination mix (0, 8.3, 25, 75, 225 mM); autoradiography band at about 45 kD; read-out: LiCl concentration at which the phosphorylation state of GST-2E11 was reduced by 50%
Method: Expression and purification of the GST-2E11 fusion protein were performed as described above. Beads with bound fusion protein corresponding to 1 ml of bacterial clear lysate were washed three times in NETN and one time with HMK buffer without DTT (20 mM Tris-HCl [pH 7.5], 120 mM NaCl, 12 mM MgCl2). Beads were resuspended in 240 μl of reaction mix (24 μl of 10× HMK Buffer with 20 mM DTT, 40 units of Protein Kinase A Catalytic Subunit [PKA from bovine heart, 250 units/vial, Sigma] in 40 mM DTT, 5 μl of 24 mM ATP and 207 μl of distilled water) and incubated for 30 min at room temperature. Beads were then washed three times in NETN buffer and one time in GSK -3β reaction buffer (20 mM Tris-HCl [pH 7.5], 10 mM MgCl2, 5 mM DTT) (New England Biolabs). Beads were then resuspended in 50 μl of reaction mix (5 μl of 10× GSK-3β reaction buffer, 1 μl of [^32P]γATP 10 mCi/ml, 50 U of recombinant GSK-3β[New England Biolabs], and distilled water for a final volume of 50 μl) and incubated at room temperature for 30 min. After three washes in NETN buffer, phosphorylated proteins were boiled in 2× Sample Buffer (125 mM Tris-HCl [pH 6.8], 4% SDS, 20% glycerol, 1.4 M β-Mercapto ethanol), resolved by 10% SDS-PAGE, and visualized by autoradiography.
In this phosphorylation assay, non-radiolabeled polypeptides to be tested are incubated in the presence of GSK-3β, PKA and radioactive ATP. […]

PP2A phosphatase = assay: In vitro dephosphorylation of phosphorylated GST-2E11 with HTB-14 whole cell extracts; type: biochemical, Human; settings: HTB-14 cell extracts (500 μg) plus 400 μM okadaic acid, 30 min, room temperature
Method: In vitro phosphorylated GST-2E11 fusion protein was incubated at room temperature for 30 min with 500 μg of whole cell extracts of Human glioblastoma, astrocytoma cell line (ATCC number: HTB-14) with or without 400 μM of the PP2A phosphatase inhibitor okadaic acid (Sigma). HTB-14 whole cell extracts were prepared as follow: cells were washed three times with ice-cold TBS buffer (10 mM Tris-HCl [pH 8.0], 120 mM NaCl) and lysed at 4° C. for 30 min in EBC buffer (50 mM Tris-HCl [pH 8.0], 120 mM NaCl, 0.5% Nonidet P-40). Then the lysate was centrifugated for 10 min at 13.000×g at 4° C. to pellet cell debris. Proteins present in the supernatant were quantified by the standard Bradford's method (Bio-Rad Protein Assay). The proteins were then resolved by 10% SDS-PAGE, and visualized by autoradiography.
The phosphorylated radiolabeled GST-2E11 proteins obtained from the previous assay were incubated in the presence of HTB-14 cell extracts containing the PP2A phosphatase to determine whether PP2A is capable of dephosphorylating GST-2E11 proteins. In this experiment, a protein that is dephosphorylated by PP2A is not radioactive after incubation in the presence of HTB-14 cell extracts any more. Thus dephosphorylation of the GST-2E11 protein is monitored by disappearance of the signal visualized by autoradiography. […]

[1] = test system: GST-2E11 recombinant protein
GST recombinant protein = target: T1, GST recombinant protein (UniProt P08515 1-218 = GST); assay: solid phase overlay assay: GST blotted on nitrocellulose, probed with 32P-labeled GST-PPP2R2C, autoradiography
T1 construct: Negative control in the overlay assay; also called Glutathione S-transferase; pGEX2TK plasmid product
Method: After 4.5 hr of incubation, the membrane was washed with Hyb75 buffer, 1 mM DTT, 1% (w/v) non-fat dry milk three times for 15 min at room temperature. The blots were analyzed by autoradiography.

[Cl-].[Li+] [LiCl]
IC50 (GSK-3β): ~50 mM

C=C1[C@@H](O)[C@@H]2O[C@]3(CC[C@H](/C=C/[C@@H](C)[C@@H]4CC(C)=C[C@@]5(O[C@H](C[C@@](C)(O)C(=O)O)CC[C@H]5O)O4)O3)CC[C@H]2O[C@@H]1[C@@H](O)C[C@H](C)[C@H]1O[C@@]2(CCCCO2)CC[C@H]1C [okadaic acid]
intensity of the GST-2E11 band versus the band of phosphorylated GST-2E11 (reference) (PP2A phosphatase): only slightly weaker

PP2A phosphatase in HTB-14 whole cell extracts
dephosphorylation of 32P-phosphorylated GST-2E11 (loss of the autoradiography band), with or without okadaic acid [1]: In the line loaded with GST-2E11 fusion proteins incubated in the presence of HTB-14 cell extracts, the band had an extremely weaker intensity

Protein Kinase A Catalytic Subunit (PKA from bovine heart, Sigma)
phosphorylation of GST-2E11 with 5 µg of CREB phosphopeptides added as competitor [1]: A band did still appear at a position corresponding to the size of GST-2E11, but the intensity of the band was very significantly lower | phosphorylation with [32P]γATP, band at about 45 kD by autoradiography [1]: Thus the GST-2E11 protein is phosphorylated by GSK-3β and PKA in vitro

recombinant GSK-3β kinase (New England Biolabs)
phosphorylation of GST-2E11 with 5 µg of CREB phosphopeptides added as competitor [1]: A band did still appear at a position corresponding to the size of GST-2E11, but the intensity of the band was very significantly lower | phosphorylation with [32P]γATP, band at about 45 kD by autoradiography [1]: Thus the GST-2E11 protein is phosphorylated by GSK-3β and PKA in vitro

B1: GST-PPP2R2C radiolabeled recombinant protein (other)
chain: MGEDTDTRKINHSFLRDHSYVTEADIISTVEFNHTGELLATGDKGGRVVIFQREPESKNAPHSQGDYDVYSTFQSHEPEFDYLKSLEIEEKINKIKWLPQQNAAHSLLSTNDKTIKLWKITERDKRPEGYNLKDEEGKLKDLSTVTSLQVPVLKPMDLMVEVSPRRIFANGHTYHINSISVNSDCETYMSADDLRINLWHLAITDRSFNIVDIKPANMEDLTEVITASEFHPHHCNLFVYSSSKGSLRLCDMPAAALCDKHSKLFEEPEDPSNRSFFSEIISSVSDVKFSHSDRYMLTRDYLTVKVWDLNMEARPIETYQVHDYLRSKLCSLYENDCIFDKFECAWNGSDSVIMTGAYNNFFRMFDRNTKRDVTLEASRESSKPRAVLKPRRVCVGGKRRRDDISVDSLDFTKKILHTAWHPAENIIAIAATNNLYIFQDKVNSDMH
modifications: radiolabeled with [32P]-γATP by Protein Kinase A Catalytic Subunit
notes: Used as the soluble probe in the solid phase overlay assay; also called PP2A/Bγ; pGEX-2TK-PPP2R2C; not shown: glutathione S-transferase encoded by the pGEX-2TK vector (Amersham Pharmacia Biotech)
binding result (GST recombinant protein): no binding (tested: 100 ng, 10 ng and 0.1 ng of GST loaded)
